Publication PMC4914107 (Nucleic Acids Research, 2016)

How the values were obtained:
RAD51 (purified) = target: T1, RAD51 (purified) (UniProt Q06609 1-339); assay: pull-down
T1 sequence (looked up): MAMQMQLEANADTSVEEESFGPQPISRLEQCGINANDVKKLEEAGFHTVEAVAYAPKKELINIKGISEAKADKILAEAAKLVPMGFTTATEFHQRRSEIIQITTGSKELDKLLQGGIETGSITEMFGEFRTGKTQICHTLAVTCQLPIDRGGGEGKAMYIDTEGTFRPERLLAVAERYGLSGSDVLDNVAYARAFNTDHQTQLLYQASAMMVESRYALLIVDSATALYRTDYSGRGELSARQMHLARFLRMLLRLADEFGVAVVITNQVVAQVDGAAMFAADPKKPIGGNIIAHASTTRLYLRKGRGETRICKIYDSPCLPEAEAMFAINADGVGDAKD

2XMBP-BRC1-8-DBD = 2XMBP-BRC1-8-DBD (Homo sapiens, UniProt P51587 993-3418); assay: EMSA
2XMBP-BRC4-DBD = target: T2, 2XMBP-BRC4-DBD (Homo sapiens, UniProt P51587;P51587 1496-1589;2153-3418); assay: EMSA
T2 chain 1: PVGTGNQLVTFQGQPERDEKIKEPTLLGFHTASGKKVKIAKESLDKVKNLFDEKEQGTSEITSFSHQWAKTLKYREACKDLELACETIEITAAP
T2 chain 2: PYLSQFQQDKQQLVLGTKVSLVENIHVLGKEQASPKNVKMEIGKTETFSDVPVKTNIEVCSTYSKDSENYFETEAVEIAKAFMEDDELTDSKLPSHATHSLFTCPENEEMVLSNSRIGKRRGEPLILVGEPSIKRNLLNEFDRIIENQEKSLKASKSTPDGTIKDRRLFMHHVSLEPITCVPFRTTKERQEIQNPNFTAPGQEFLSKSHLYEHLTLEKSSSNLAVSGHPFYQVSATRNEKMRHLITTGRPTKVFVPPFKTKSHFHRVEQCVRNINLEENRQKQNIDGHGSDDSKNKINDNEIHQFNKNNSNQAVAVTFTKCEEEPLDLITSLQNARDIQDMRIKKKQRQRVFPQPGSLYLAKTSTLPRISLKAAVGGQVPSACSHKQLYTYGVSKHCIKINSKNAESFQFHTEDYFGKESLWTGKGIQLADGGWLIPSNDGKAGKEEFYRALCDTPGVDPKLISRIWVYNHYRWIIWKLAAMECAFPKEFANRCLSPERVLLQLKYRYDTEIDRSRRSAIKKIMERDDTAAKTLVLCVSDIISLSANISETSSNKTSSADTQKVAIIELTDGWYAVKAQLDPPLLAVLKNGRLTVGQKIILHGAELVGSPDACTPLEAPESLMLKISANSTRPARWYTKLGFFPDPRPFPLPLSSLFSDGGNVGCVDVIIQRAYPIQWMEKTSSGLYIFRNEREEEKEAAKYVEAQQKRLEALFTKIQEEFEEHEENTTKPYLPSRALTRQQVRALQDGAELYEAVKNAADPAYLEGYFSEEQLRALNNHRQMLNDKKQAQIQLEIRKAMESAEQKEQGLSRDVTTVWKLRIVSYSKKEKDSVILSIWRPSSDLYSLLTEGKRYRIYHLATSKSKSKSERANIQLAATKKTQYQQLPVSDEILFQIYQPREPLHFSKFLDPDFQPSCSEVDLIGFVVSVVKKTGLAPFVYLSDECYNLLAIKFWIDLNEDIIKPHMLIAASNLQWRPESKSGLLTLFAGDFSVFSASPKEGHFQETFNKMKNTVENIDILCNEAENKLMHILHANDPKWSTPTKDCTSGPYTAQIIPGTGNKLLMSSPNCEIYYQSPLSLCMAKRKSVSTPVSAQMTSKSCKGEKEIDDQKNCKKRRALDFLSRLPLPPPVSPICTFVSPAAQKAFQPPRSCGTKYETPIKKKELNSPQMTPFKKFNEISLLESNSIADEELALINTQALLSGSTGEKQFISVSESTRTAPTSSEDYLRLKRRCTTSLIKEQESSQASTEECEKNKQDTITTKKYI

2XMBP-BRCA2 DBD [1] = target: T3, 2XMBP-BRCA2 DBD (Homo sapiens, UniProt P51587 2153-3418); assay: EMSA
T3 sequence: T2 chain 2

2XMBP-BRC5-8-DBD = 2XMBP-BRC5-8-DBD (Homo sapiens, UniProt P51587 1596-3418); assay: EMSA
2XMBP-BRC1-4-DBD = target: T4, 2XMBP-BRC1-4-DBD (Homo sapiens, UniProt P51587;P51587 993-1589;2153-3418); assay: EMSA
T4 chain 1: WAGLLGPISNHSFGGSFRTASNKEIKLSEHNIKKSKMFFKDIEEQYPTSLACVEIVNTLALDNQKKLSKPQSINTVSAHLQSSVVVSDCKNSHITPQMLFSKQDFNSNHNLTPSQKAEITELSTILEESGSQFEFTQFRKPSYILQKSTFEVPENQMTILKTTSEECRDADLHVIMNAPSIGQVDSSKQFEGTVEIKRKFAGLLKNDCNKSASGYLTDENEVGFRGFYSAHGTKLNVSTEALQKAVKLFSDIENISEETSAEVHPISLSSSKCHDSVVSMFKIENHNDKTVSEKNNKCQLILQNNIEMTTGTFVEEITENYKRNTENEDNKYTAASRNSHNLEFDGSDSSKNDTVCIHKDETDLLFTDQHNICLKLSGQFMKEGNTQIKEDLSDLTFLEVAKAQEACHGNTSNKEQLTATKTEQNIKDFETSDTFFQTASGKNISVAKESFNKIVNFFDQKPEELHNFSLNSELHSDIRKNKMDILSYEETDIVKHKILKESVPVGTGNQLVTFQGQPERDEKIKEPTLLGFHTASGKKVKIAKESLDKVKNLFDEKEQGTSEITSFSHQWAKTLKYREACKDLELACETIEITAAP
T4 chain 2: T2 chain 2

RAD51;2XMBP-BRC1-4-DBD = RAD51;2XMBP-BRC1-4-DBD (Homo sapiens;Homo sapiens, UniProt Q06609;P51587;P51587 1-339;993-1589;2153-3418, |); assay: pull-down
2XMBP-BRCA2 DBD [2] = target: T3, 2XMBP-BRCA2 DBD; assay: pull-down
RAD51;2XMBP-BRC5-8-DBD = RAD51;2XMBP-BRC5-8-DBD (Homo sapiens;Homo sapiens, UniProt Q06609;P51587 1-339;1596-3418, |); assay: pull-down
RAD51;2XMBP-BRC1-8-DBD = RAD51;2XMBP-BRC1-8-DBD (Homo sapiens;Homo sapiens, UniProt Q06609;P51587 1-339;993-3418, |); assay: pull-down

Measured: binding result

B1: 2XMBP-BRC1–4-DBD (domain or fragment, human)
chain: WAGLLGPISNHSFGGSFRTASNKEIKLSEHNIKKSKMFFKDIEEQYPTSLACVEIVNTLALDNQKKLSKPQSINTVSAHLQSSVVVSDCKNSHITPQMLFSKQDFNSNHNLTPSQKAEITELSTILEESGSQFEFTQFRKPSYILQKSTFEVPENQMTILKTTSEECRDADLHVIMNAPSIGQVDSSKQFEGTVEIKRKFAGLLKNDCNKSASGYLTDENEVGFRGFYSAHGTKLNVSTEALQKAVKLFSDIENISEETSAEVHPISLSSSKCHDSVVSMFKIENHNDKTVSEKNNKCQLILQNNIEMTTGTFVEEITENYKRNTENEDNKYTAASRNSHNLEFDGSDSSKNDTVCIHKDETDLLFTDQHNICLKLSGQFMKEGNTQIKEDLSDLTFLEVAKAQEACHGNTSNKEQLTATKTEQNIKDFETSDTFFQTASGKNISVAKESFNKIVNFFDQKPEELHNFSLNSELHSDIRKNKMDILSYEETDIVKHKILKESVPVGTGNQLVTFQGQPERDEKIKEPTLLGFHTASGKKVKIAKESLDKVKNLFDEKEQGTSEITSFSHQWAKTLKYREACKDLELACETIEITAAPGGGSPYLSQFQQDKQQLVLGTKVSLVENIHVLGKEQASPKNVKMEIGKTETFSDVPVKTNIEVCSTYSKDSENYFETEAVEIAKAFMEDDELTDSKLPSHATHSLFTCPENEEMVLSNSRIGKRRGEPLILVGEPSIKRNLLNEFDRIIENQEKSLKASKSTPDGTIKDRRLFMHHVSLEPITCVPFRTTKERQEIQNPNFTAPGQEFLSKSHLYEHLTLEKSSSNLAVSGHPFYQVSATRNEKMRHLITTGRPTKVFVPPFKTKSHFHRVEQCVRNINLEENRQKQNIDGHGSDDSKNKINDNEIHQFNKNNSNQAVAVTFTKCEEEPLDLITSLQNARDIQDMRIKKKQRQRVFPQPGSLYLAKTSTLPRISLKAAVGGQVPSACSHKQLYTYGVSKHCIKINSKNAESFQFHTEDYFGKESLWTGKGIQLADGGWLIPSNDGKAGKEEFYRALCDTPGVDPKLISRIWVYNHYRWIIWKLAAMECAFPKEFANRCLSPERVLLQLKYRYDTEIDRSRRSAIKKIMERDDTAAKTLVLCVSDIISLSANISETSSNKTSSADTQKVAIIELTDGWYAVKAQLDPPLLAVLKNGRLTVGQKIILHGAELVGSPDACTPLEAPESLMLKISANSTRPARWYTKLGFFPDPRPFPLPLSSLFSDGGNVGCVDVIIQRAYPIQWMEKTSSGLYIFRNEREEEKEAAKYVEAQQKRLEALFTKIQEEFEEHEENTTKPYLPSRALTRQQVRALQDGAELYEAVKNAADPAYLEGYFSEEQLRALNNHRQMLNDKKQAQIQLEIRKAMESAEQKEQGLSRDVTTVWKLRIVSYSKKEKDSVILSIWRPSSDLYSLLTEGKRYRIYHLATSKSKSKSERANIQLAATKKTQYQQLPVSDEILFQIYQPREPLHFSKFLDPDFQPSCSEVDLIGFVVSVVKKTGLAPFVYLSDECYNLLAIKFWIDLNEDIIKPHMLIAASNLQWRPESKSGLLTLFAGDFSVFSASPKEGHFQETFNKMKNTVENIDILCNEAENKLMHILHANDPKWSTPTKDCTSGPYTAQIIPGTGNKLLMSSPNCEIYYQSPLSLCMAKRKSVSTPVSAQMTSKSCKGEKEIDDQKNCKKRRALDFLSRLPLPPPVSPICTFVSPAAQKAFQPPRSCGTKYETPIKKKELNSPQMTPFKKFNEISLLESNSIADEELALINTQALLSGSTGEKQFISVSESTRTAPTSSEDYLRLKRRCTTSLIKEQESSQASTEECEKNKQDTITTKKYI
binds: RAD51 (purified)

B2: 3' tail DNA (RJ-167-mer / RJ-PHIX-42-1) (mixed)
DNA 1: CTGCTTTATCAAGATAATTTTTCGACTCATCAGAAATATCCGTTTCCTATATTTATTCCTATTATGTTTTATTCATTTACTTATTCTTTATGTTCATTTTTTATATCCTTTACTTTATTTTCTCTGTTTATTCATTTACTTATTTTGTATTATCCTTATCTTATTTA
DNA 2: CGGATATTTCTGATGAGTCGAAAAATTATCTTGATAAAGCAG
binds: 2XMBP-BRC1-8-DBD | 2XMBP-BRC4-DBD | 2XMBP-BRCA2 DBD [1] | 2XMBP-BRC5-8-DBD | 2XMBP-BRC1-4-DBD

B3: biotinylated ssDNA RJ-167-mer (ssDNA)
DNA: B2 DNA 1
binds: RAD51;2XMBP-BRC1-4-DBD | 2XMBP-BRCA2 DBD [2] | RAD51;2XMBP-BRC5-8-DBD | RAD51;2XMBP-BRC1-8-DBD
